Data taken from CN114426574A (WUHAN VIRUS INST OF CHINESE ACADEMY OF SCIENCES, dated 2022).

Molecular target: WH-RBD-TFc (SARS-CoV-2 spike glycoprotein receptor binding domain, thrombin site, human IgG1 Fc fusion) (SARS-CoV-2; human, UniProt P0DTC2 319-541)

Row | Binder | EC50 [nM]
1 | Fab F1-B3 (Fab, V domains shown) VH: QVQLQESGGGLVQPGGSLRLSCAASGFTVSSNYMSWVRQAPGEGLEWVSSISSSSSYIYYADSVKGRFTISRDNAKNSLYLQMNSLRAEDTAVYYCARGKWLRGAFDIWGQGTTVTVSS VL: NFMLTQPHSMSESPGKTVTISCTGSSGSIANNYVQWYRQRPGSAPITVIYEDNQRPSGVPDRFSGSIDSSSNSASLTISGLKTEDEADYYCQSYDSSTHWVFGGGTKLTVLG | 12
2 | Fab F1-B5 (Fab, V domains shown) VH: EVQLVQSGGGVVQPGRSLRLSCAASGFTVSSNYMSWVRQAPGKGLEWVSVIYSGGSTYYADSVKGRFTISRDNSKNTLYLQMNSLRAEDTAVYYCARGDGSDDYYYGMDVWGQGTTVTVSS VL: QAVLTQPSSVSGAPGQRVTISCTGSSSNVGAGYDVHWYQQLPGTAPKLLIYGNSNRPSGVPDRFSGSKSGTSASLAITGLQAEDEADYYCQSYDSSLSGSVFGGGTKLTVLG | 63
